Data as given in patent US20140322269A1.

Key:
c1d1_N386D [1] = test: ITC
c1d1_b10disulf = test: ITC
c1d1_N386D [2] = test: SPR and ITC
c1d1_N386D [3] = test: method not restated
c1d1_N386D [4] = test: SPR, kinetics fitting
eOD_L260F_N276D = test: method not given
eOD_L260F = test: method not given
eOD_N276D = test: method not given
eOD_T257S_L260F_S375W = test: method not given
eOD_T257S_S375W = test: method not given
[5] = target: ODml(N386) (Human immunodeficiency virus type 1 group M subtype B (isolate HXB2) (HIV-1)) (UniProt P04578); test: SPR; IgG captured, OD variant as analyte
c2d1_b10disulf = test: SPR; IgG captured, OD variant as analyte
[6] = target: wild-type core GP120 (soluble, mammalian-expressed) (HIV, HxB2 strain) (UniProt P04578); test: SPR; IgG captured by anti-human IgG, gp120 as analyte
[7] = target: wild-type core GP120 (soluble, mammalian-expressed) (HIV, HxB2 strain) (UniProt P04578); test: method not restated; rounded form of 3.9 nM of Table 1
eOD_N276D_N463D [8] = test: method not given; protein from 293 cells
eOD_N276D_N463D [9] = test: method not given
c1d1_N386D [10] = test: SPR
[11] = target: c1d1_N386D displayed on yeast (Saccharomyces cerevisiae); test: yeast surface display; Fab titration, flow cytometry
[12] = target: c1d1_v2 displayed on yeast (Saccharomyces cerevisiae); test: as above
[13] = target: c1d1_b10disulf displayed on yeast (Saccharomyces cerevisiae); test: as above

VRC01 IgG (mature VRC01) (antibody)
Kd (c1d1_N386D [1]): 200 nM
Kd (c1d1_b10disulf): 100 nM
fold improvement of KD over c1d1 N386D (c1d1_b10disulf): 2 fold
fold worse KD than core gp120 (c1d1_N386D [2]): 35 to 50 fold
Kd (c1d1_N386D [3]): 80 nM
fold weaker affinity than core gp120 (c1d1_N386D [3]): > 10 fold
Kd (c1d1_N386D [4]): 139 nM
Kd (eOD_L260F_N276D): 11.9 nM
Kd (eOD_L260F): 14.3 nM
Kd (eOD_N276D): 27.8 nM
Kd (eOD_T257S_L260F_S375W): 8.6 nM
Kd (eOD_T257S_S375W): 90 nM
Kd [5]: 298 nM
Kd (c2d1_b10disulf): 289 nM
Kd [6]: 3.9 nM
Kd [7]: 4 nM
Kd (eOD_N276D_N463D [8]): 4 nM

germline VRC01 IgG (antibody)
Kd (eOD_L260F_N276D): 149000 nM
Kd (eOD_L260F): > 500000 nM
Kd (eOD_N276D_N463D [9]): 380000 nM
Kd (eOD_N276D): 640000 nM

b12 IgG (antibody)
fold improvement of KD over OD (386) (c1d1_N386D [10]): 28 fold

b12 Fab
Kd [11]: 21 nM
Kd [12]: 11 nM

VRC01 Fab
Kd [11]: > 50 nM
Kd [13]: > 50 nM
Kd [12]: > 50 nM
